Columns and labels:
Test in all cases: cell-based or functional assay
HIV-1 Env of UG037.8 = HIV-1 Env of UG037.8 (HIV-1)
HIV-1 Env of 3016.V5.c36 = HIV-1 Env of 3016.V5.c36 (HIV-1)
HIV-1 Env of Q769.d22 = HIV-1 Env of Q769.d22 (HIV-1)
HIV-1 Env of 6535.3 = HIV-1 Env of 6535.3 (HIV-1)
HIV-1 Env of ZM197.7 = HIV-1 Env of ZM197.7 (HIV-1)
HIV-1 Env of TRO.11 = HIV-1 Env of TRO.11 (HIV-1)
HIV-1 Env of 96ZM651.02 = HIV-1 Env of 96ZM651.02 (HIV-1)
HIV-1 Env of ZM109.4 = HIV-1 Env of ZM109.4 (HIV-1)
HIV-1 Env of PVO.04 = HIV-1 Env of PVO.04 (HIV-1)
HIV-1 Env of RW020.2 = HIV-1 Env of RW020.2 (HIV-1)
HIV-1 Env of AC10.29 = HIV-1 Env of AC10.29 (HIV-1)
HIV-1 Env of C1080.c3 = HIV-1 Env of C1080.c3 (HIV-1)
HIV-1 Env of KER2008.12 = HIV-1 Env of KER2008.12 (HIV-1)
HIV-1 Env of ZM135.10a = HIV-1 Env of ZM135.10a (HIV-1)
HIV-1 Env of BG505.w6m = HIV-1 Env of BG505.w6m (HIV-1)
HIV-1 Env of MB539.2B7 = HIV-1 Env of MB539.2B7 (HIV-1)
HIV-1 Env of Q259.d2.17 = HIV-1 Env of Q259.d2.17 (HIV-1)
HIV-1 Env of CAAN.A2 = HIV-1 Env of CAAN.A2 (HIV-1)
HIV-1 Env of REJO.67 = HIV-1 Env of REJO.67 (HIV-1)
HIV-1 Env of CAP256.PI = HIV-1 Env of CAP256.PI (HIV-1)
HIV-1 Env of WITO.33 = HIV-1 Env of WITO.33 (HIV-1)
HIV-1 Env of SC422.8 = HIV-1 Env of SC422.8 (HIV-1)
HIV-1 Env of DU172.17 = HIV-1 Env of DU172.17 (HIV-1)
HIV-1 Env of Q461.e2 = HIV-1 Env of Q461.e2 (HIV-1)
HIV-1 Env of TRJO.58 = HIV-1 Env of TRJO.58 (HIV-1)
HIV-1 Env of CAP45.G3 = HIV-1 Env of CAP45.G3 (HIV-1)
HIV-1 Env of ZM249.1 = HIV-1 Env of ZM249.1 (HIV-1)
HIV-1 Env of THRO.18 = HIV-1 Env of THRO.18 (HIV-1)
HIV-1 Env of CAP210.E8 = HIV-1 Env of CAP210.E8 (HIV-1)
HIV-1 Env of CAP256.SU = HIV-1 Env of CAP256.SU (HIV-1)
HIV-1 Env of ZM233.6 = HIV-1 Env of ZM233.6 (HIV-1)
HIV-1 Env of 0260.v5.c36 = HIV-1 Env of 0260.v5.c36 (HIV-1)
HIV-1 Env of CM244.ec1 = HIV-1 Env of CM244.ec1 (HIV-1)
HIV-1 Env of ZM214.15 = HIV-1 Env of ZM214.15 (HIV-1)
HIV-1 Env of MB201 = HIV-1 Env of MB201 (HIV-1)
HIV-1 Env of ZM53.12 = HIV-1 Env of ZM53.12 (HIV-1)
HIV-1 Env of 191821.E6.1 = HIV-1 Env of 191821.E6.1 (HIV-1)
HIV-1 Env of QH0692.42 = HIV-1 Env of QH0692.42 (HIV-1)
HIV-1 Env of DU422.01 = HIV-1 Env of DU422.01 (HIV-1)
HIV-1 Env of CAP244.D3 = HIV-1 Env of CAP244.D3 (HIV-1)
HIV-1 Env of RHPA.7 = HIV-1 Env of RHPA.7 (HIV-1)
HIV-1 Env of Q168.a2 = HIV-1 Env of Q168.a2 (HIV-1)
HIV-1 Env of Q842.d12 = HIV-1 Env of Q842.d12 (HIV-1)
HIV-1 Env of Q23.17 = HIV-1 Env of Q23.17 (HIV-1)
HIV-1 Env of DU156.12 = HIV-1 Env of DU156.12 (HIV-1)
HIV-1 Env of KER2018.11 = HIV-1 Env of KER2018.11 (HIV-1)
HIV-1 Env of 6405.v4.c34 = HIV-1 Env of 6405.v4.c34 (HIV-1)

B1: CAP256-VRC26.09 (antibody, V domains shown)
VH: EVQLVESGGGVVQPGRSLTLSCAASQFNFANYGMHWVRQAPGKGLEWVASISNDGTKKYHEESVWGRFTISKDNSKSTLFLQMNSLRIEDTALYFCVKDQREDECEEWWSDYYDFGRELPCRKSRGLGLAGIFDMWGHGTMVTVSS
VL: QSALTQPPSVSAAPGQKVTISCSGNSSNIGNNFVSWYQQLPGTAPKLLIYENNRRPSGIPDRFSGSKSGTSATLAISGLQTGDEADYWCAVWGVRRGAGAVFGAGTKVTVLG
neutralization IC50 (HIV-1 Env of UG037.8): > 50 µg/mL
neutralization IC50 (HIV-1 Env of 3016.V5.c36): 0.004 µg/mL
neutralization IC50 (HIV-1 Env of Q769.d22): > 50 µg/mL
neutralization IC50 (HIV-1 Env of 6535.3): > 50 µg/mL
neutralization IC50 (HIV-1 Env of ZM197.7): 0.011 µg/mL
neutralization IC50 (HIV-1 Env of TRO.11): > 50 µg/mL
neutralization IC50 (HIV-1 Env of 96ZM651.02): 0.991 µg/mL
neutralization IC50 (HIV-1 Env of ZM109.4): > 50 µg/mL
neutralization IC50 (HIV-1 Env of PVO.04): > 50 µg/mL
neutralization IC50 (HIV-1 Env of RW020.2): > 50 µg/mL
neutralization IC50 (HIV-1 Env of AC10.29): > 50 µg/mL
neutralization IC50 (HIV-1 Env of C1080.c3): 0.019 µg/mL
neutralization IC50 (HIV-1 Env of KER2008.12): > 50 µg/mL
neutralization IC50 (HIV-1 Env of ZM135.10a): > 50 µg/mL
neutralization IC50 (HIV-1 Env of BG505.w6m): 0.054 µg/mL
neutralization IC50 (HIV-1 Env of MB539.2B7): 40.7 µg/mL
neutralization IC50 (HIV-1 Env of Q259.d2.17): 0.008 µg/mL
neutralization IC50 (HIV-1 Env of CAAN.A2): > 50 µg/mL
neutralization IC50 (HIV-1 Env of REJO.67): > 50 µg/mL
neutralization IC50 (HIV-1 Env of CAP256.PI): > 50 µg/mL
neutralization IC50 (HIV-1 Env of WITO.33): > 50 µg/mL
neutralization IC50 (HIV-1 Env of SC422.8): > 50 µg/mL
neutralization IC50 (HIV-1 Env of DU172.17): > 50 µg/mL
neutralization IC50 (HIV-1 Env of Q461.e2): 0.705 µg/mL
neutralization IC50 (HIV-1 Env of TRJO.58): > 50 µg/mL
neutralization IC50 (HIV-1 Env of CAP45.G3): 16 µg/mL
neutralization IC50 (HIV-1 Env of ZM249.1): 0.01 µg/mL
neutralization IC50 (HIV-1 Env of THRO.18): > 50 µg/mL
neutralization IC50 (HIV-1 Env of CAP210.E8): 0.002 µg/mL
neutralization IC50 (HIV-1 Env of CAP256.SU): 0.002 µg/mL
neutralization IC50 (HIV-1 Env of ZM233.6): 0.001 µg/mL
neutralization IC50 (HIV-1 Env of 0260.v5.c36): > 50 µg/mL
neutralization IC50 (HIV-1 Env of CM244.ec1): 0.105 µg/mL
neutralization IC50 (HIV-1 Env of ZM214.15): 0.333 µg/mL
neutralization IC50 (HIV-1 Env of MB201): > 50 µg/mL
neutralization IC50 (HIV-1 Env of ZM53.12): 0.002 µg/mL
neutralization IC50 (HIV-1 Env of 191821.E6.1): 0.054 µg/mL
neutralization IC50 (HIV-1 Env of QH0692.42): > 50 µg/mL
neutralization IC50 (HIV-1 Env of DU422.01): 0.023 µg/mL
neutralization IC50 (HIV-1 Env of CAP244.D3): > 50 µg/mL
neutralization IC50 (HIV-1 Env of RHPA.7): > 50 µg/mL
neutralization IC50 (HIV-1 Env of Q168.a2): 0.181 µg/mL
neutralization IC50 (HIV-1 Env of Q842.d12): 10.1 µg/mL
neutralization IC50 (HIV-1 Env of Q23.17): 9.5 µg/mL
neutralization IC50 (HIV-1 Env of DU156.12): 0.016 µg/mL
neutralization IC50 (HIV-1 Env of KER2018.11): 0.002 µg/mL
neutralization IC50 (HIV-1 Env of 6405.v4.c34): > 50 µg/mL

Reference: patent publication US20200199204A1 (UNITED STATES OF AMERICA AS REPRESENTED BY THE SECRETARY …, published 2020)
